Source: patent US20120082667A1

Molecular target: A beta oligomer prepared from synthetic A beta1-40 (HCl form), 0.1 mg/ml in PBS, incubated at 37 degrees C for one hour (UniProt P05067)
Assay: SPR, Biacore 3000, A beta1-40 oligomer on CM5 chip, antibody as analyte at five concentrations

- Kd: 2.91 nM
- koff: 0.000168 s⁻¹
- kon: 57800 M⁻¹ s⁻¹
Substance: Anti-A beta antibody 6E10 (Covance Immuno-Technologies)
